From paper PMC7897471

Legend:
[1] = molecular target: [Alexa488]-QnrB1 (QnrB1-His, N-terminally labelled with AlexaFluor 488); assay: fluorescence polarisation; fluorescence anisotropy; 50 nM Alexa488-labelled QnrB1 mixed with gyrase subunit(s) in EMSA buffer (30 mM Tris-Cl pH 7.5, 75 mM KCl, 6% glycerol, 2 mM MgCl2, 1 mM DTT), 10 min at room temperature; one site specific binding fit
[2] = molecular target: [Alexa488]-QnrB1 (QnrB1-His, N-terminally labelled with AlexaFluor 488); assay: fluorescence polarisation; as a1 but subunits with 1 mM ADPNP, incubated for an additional 1 h at room temperature with addition of 2 mM MgCl2
[3] = molecular target: E. coli DNA gyrase A2B2 complex (E. coli) (UniProt P0AES4)
[4] = molecular target: GyrB 43 kDa domain (GyrB43), N-terminal ATPase-transducer domain of E. coli GyrB (E. coli)
[5] = molecular target: E. coli DNA gyrase A2B2 complex (E. coli) (UniProt P0AES4); assay: native gel or EMSA; 20 nM 147 bp pBR322 dsDNA fragment with 0.2 μM reconstituted gyrase in EMSA buffer, QnrB1 added as indicated; 30 min at 25°C; 6% polyacrylamide gel in TBM; IC50 = QnrB1 concentration that halves the bound DNA
[6] = molecular target: E. coli DNA gyrase subunit B, full-length untagged (E. coli) (UniProt P0AES6)
[7] = molecular target: GyrB 43 kDa domain (GyrB43), N-terminal ATPase-transducer domain of E. coli GyrB (E. coli); remark: listed apart in the source
[8] = molecular target: Gyrase (Escherichia coli) (UniProt P0AES4); details: cited from earlier work

Substance	Kd [1] [nM]	Kd [2] [nM]	other results
E. coli DNA gyrase A2B2 complex (from UniProt P0AES4 1-875; P0AES6 1-804)	80	1780	
E. coli DNA gyrase subunit A, full-length untagged (from UniProt P0AES4 1-875) (natural protein)	3900		
E. coli DNA gyrase subunit B, full-length untagged (from UniProt P0AES6 1-804) (natural protein)	2530	3800	
GyrB 43 kDa domain (GyrB43), N-terminal ATPase-transducer domain of E. coli GyrB (domain or fragment)	1770	12200	
QnrB1 with a C-terminal 6xHis tag (wild type, unlabelled) (natural protein)			DNA-independent ATP hydrolysis rate of 50 nM gyrase (A2B2) with 5 μM QnrB1 [3]: 3 fold; ATPase reaction rate of 4 μM GyrB43 with 5 μM QnrB1 against no QnrB1 [4]: 17 fold; IC50 [5]: 10900 nM; ATPase activity of the full-length GyrB subunit with QnrB1 (not shown) [6]: < 2 fold; QnrB1-dependent activation of GyrB43 ATPase activity (4 μM GyrB43, 1 mM ATP), Km for QnrB1 of a Michaelis-Menten fit [7]: 3.61 µM
YacG (from UniProt C4ZRJ5)			Ki [8]: 35 nM
